Test results from US20210246451, “APTAMER FOR ADAMTS5 AND USE FOR APTAMER FOR ADAMTS5” (RIBOMIC INC., published 2021).
Positions count from the first letter of the chain named.

What was measured:
Conditions in all cases: tags: R&D Systems
[1] = target: T1, ADAMTS5 (UniProt Q9UNA0 Q9UNA0:262-622); assay: inhibition; 10 nM aptamer
T1 sequence: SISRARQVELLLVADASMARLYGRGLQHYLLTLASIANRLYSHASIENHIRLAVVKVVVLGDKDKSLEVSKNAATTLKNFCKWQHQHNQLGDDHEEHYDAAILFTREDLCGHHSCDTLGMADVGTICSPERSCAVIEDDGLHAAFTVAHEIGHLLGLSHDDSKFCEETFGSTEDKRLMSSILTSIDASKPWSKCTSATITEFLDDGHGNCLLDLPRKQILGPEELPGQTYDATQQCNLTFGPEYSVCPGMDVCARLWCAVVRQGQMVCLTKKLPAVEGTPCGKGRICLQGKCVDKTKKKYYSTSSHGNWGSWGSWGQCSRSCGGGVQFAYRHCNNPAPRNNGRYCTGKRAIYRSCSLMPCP
Method: (§1) Whether an aptamer having the nucleotide sequence shown in SEQ ID NO: 1 inhibits the enzyme activity of ADAMTS5 was evaluated by the following method. As a substrate of ADAMTS5, the G1-IGD-G2 domain of aggrecan (manufactured by R&D systems) was used. ADAMTS5 specifically cleaves in between the 392nd glutamic acid and the 393rd alanine in the G1-IGD-G2 domain and produces two fragments. These fragments have faster electrophoretic mobility than uncleaved G1-IGD-G2. Thus, the enzyme activity of ADAMTS5 can be measured by quantifying the band intensity of G1-IGD-G2 by SDS-PAGE electrophoresis. The assay was performed in a solution A buffer with a reaction mixture volume of 10 μL. First, a mixture (10 μL) of a nucleic acid and ADAMTS5 was prepared and incubated at 25° C. for 15 min. To a substrate solution (5 μL) diluted with solution A was added a mixture (5 μL) of the nucleic acid and ADAMTS5 to start the enzyme reaction. The final concentration of ADAMTS5 in the reaction solution was 5 nM, and the final substrate concentration was 50 μg/mL. The reaction solution was incubated at 37° C. for 2 hr, 2 μL of solution D was added, and the mixture was heated at 95° C. for 2 min to stop the enzyme reaction of ADAMTS5. Solution D contains 0.25 M tris (pH 6.8), 10% SDS, 50% glycerol, 0.25% bromo phenolblue, and 20% 2-mercaptoethanol. The heat-treated reaction solution was electrophoresed by 7.5% SDS-PAGE and stained with SYPRO Orange (manufactured by Sigma-Aldrich). The staining was performed according to the manual of Sigma-Aldrich and detected using STORM840 manufactured by GE Healthcare. […] The amount of uncleaved substrate in each reaction solution was quantified from the band intensity and the standard curve. […] The inhibition rate of the test substance was calculated using the following equation.
The binding activity and enzyme inhibitory activity of aptamers having nucleotide sequences shown in SEQ ID NOs: 16-25 to ADAMTS5 were measured. The binding activity was evaluated by the surface plasmon resonance method. […]

[2] = target: T1, ADAMTS5; assay: inhibition; SDS-PAGE aggrecan cleavage, 5 nM enzyme
Method: as §1, with “The reaction solution was incubated at 37° C. for 2 hr, 2 μL of solution D was added, and the mixture was heated at 95° C. for 2 min to stop the enzyme reaction of ADAMTS5. Solution D contains 0.25 M tris (pH 6.8), 10% SDS, 50% glycerol, 0.25% bromo phenolblue, and 20% 2-mercaptoethanol. The heat-treated reaction solution was electrophoresed by 7.5% SDS-PAGE and stained with SYPRO Orange (manufactured by Sigma-Aldrich).” left out, “equation. […]” for “equation.”

[3] = target: T1, ADAMTS5; assay: inhibition; method 2 ELISA; 98.1% at 2 nM
Method: (§2) The substrate cleavage efficiency of ADAMTS5 under these reaction conditions was 80-100%. The inhibition rate of the test substance was calculated using the following equation.
(§3) On the other hand, the aptamers having the sequences shown by the sequences of SEQ ID NOs: 11(34)-11(35) and SEQ ID NO: 15 were evaluated by the following method (evaluation method 2). The cleavage reaction of the substrate (aggrecan G1-IGD-G2) by ADAMTS5 was performed in the same manner as in Example 1 except the following points. The differences are that the final concentrations of ADAMTS5 and the substrate were respectively 0.2 nM and 400 nM (48 μg/mL), and that the enzyme reaction time was 30 min. […] The cleaved substrate was quantified by a sandwich ELISA method using two kinds of anti-aggrecan antibodies. […] Using this, the amount of cleaved substrate can be quantified. […] The inhibition rate of the test substance was calculated using the following equation.
(§4) The aptamers having the sequences shown in SEQ ID NOs: 28(l)-28(18) (SEQ ID NO: 28 lineage) and SEQ ID NOs: 29(1)-29(3) (SEQ ID NO: 29 lineage) were all produced by chemical synthesis. Whether these aptamers inhibit the enzyme activity of ADAMTS5 was evaluated by a method similar to that in Example 1 and Example 5. In the Table, “n.d.” means not determined. […] “n.d.” means not determined.

[4] = target: T1, ADAMTS5; assay: inhibition; SDS-PAGE aggrecan cleavage; 81% inhibition in Table 9 method 1
Method: As a substrate of ADAMTS5, the G1-IGD-G2 domain of aggrecan (manufactured by R&D systems) was used. ADAMTS5 specifically cleaves in between the 392nd glutamic acid and the 393rd alanine in the G1-IGD-G2 domain and produces two fragments. These fragments have faster electrophoretic mobility than uncleaved G1-IGD-G2. Thus, the enzyme activity of ADAMTS5 can be measured by quantifying the band intensity of G1-IGD-G2 by SDS-PAGE electrophoresis. The assay was performed in a solution A buffer with a reaction mixture volume of 10 μL. First, a mixture (10 μL) of a nucleic acid and ADAMTS5 was prepared and incubated at 25° C. for 15 min. […] The staining was performed according to the manual of Sigma-Aldrich and detected using STORM840 manufactured by GE Healthcare. […] The amount of uncleaved substrate in each reaction solution was quantified from the band intensity and the standard curve. […] The inhibition rate of the test substance was calculated using the following equation.
The aptamer having the sequence shown in SEQ ID NO: 26 was prepared by transcription by T7RNA polymerase, and the aptamers having the sequences shown in SEQ ID NOs: 27-29 were prepared by chemical synthesis. Whether these aptamers inhibit the enzyme activity of ADAMTS5 was evaluated by a method similar to that in Example 1. In the Table, “n.d.” means not determined.

[5] = target: T1, ADAMTS5; assay: inhibition; method 2 ELISA; 95.9% at 2 nM
Method: as §2, §3, §4

B1: SEQ ID NO: 22 (ssRNA)
RNA: GGGACAUGCGUAACUGCAUAGGGGCCUCCACAGCUAUUCAGCUUGGACACAAACCAUGCAGUCCAGAUCGAGCA
modifications: 2'-F at all pyrimidines
activity [1]: 14.8 % inhibition

B2: SEQ ID NO: 23 (ssRNA)
RNA: B1 RNA with C17U, A36G, U37A, U38A, C39A, A49U, G58A
modifications: 2'-F at all pyrimidines
activity [1]: 14.5 % inhibition

B3: SEQ ID NO: 24 (ssRNA)
RNA: GGGACAUGCGUAACUUGAUAGGGGCCUCCACAGCCGGUAGGCUUGGACUCAAACCAUCAAGUCCAGAUCGAGCA
modifications: 2'-F at all pyrimidines
activity [1]: 20.2 % inhibition

UAUAGGGGCCUCCACAGCGUAAGCUUGGACUUAAACCAUA (ssRNA, 2'-OMe at 1-3,5,6,16-19,23-27,34-40; 2'-F other pyrimidines) [SEQ ID NO: 27]
IC50 [2]: 5.9 nM

CGUAGGGGCCUCCACAGCGUAAGCUUGGACUUAAACCACG (ssRNA, as SEQ 28 plus 2'-OMe at 20-22,31; 3' idT) [28(15)]
IC50 [3]: 0.084 nM

CGUAGGGGCCUCCACAGCGUAAGCUUGGACUUAAACCACG (ssRNA, 2'-OMe at 1-3,5,6,16-19,23-27,34-40; 2'-F other pyrimidines) [SEQ ID NO: 28]
IC50 [4]: 3.4 nM

CGUAGGGGCCUCCACAGCGUAAGCUUGGACUUAAACCACG (ssRNA, as SEQ 28 plus 2'-OMe at 20-22,31; 5' 40 kDa branched PEG; 3' idT) [28(18)]
IC50 [5]: 0.029 nM
